Reference: patent US20050042720A1, “Novel promiscuous G alpha protein mutants and their use” (7TM Pharma A/S, priority 2003, published 2005)
Substitutions are numbered along the chain they refer to. Names and notes keep the numbering of the source.

Assays:
Format in all cases: cell-based
[1] = system: chemokine CXCR1 and dopamine D2 receptor; assay: Calcium mobilization assay in COS7 cells cotransfected with receptor and Gα16 constructs; settings: CXCR1 (interleukin 8) and D2 ((−)quinpirole) receptors, FIG. 13
Experimental: 24 h after transfection, COS7 cells were split into 96 well plates at a density of ˜30,000 cells per well. 18-24 h later cells were loaded with a calcium sensitive dye (calcium assay kit from Molecular devices) for 1 h (37 C, 5% CO2) and then for 1 h at room temperature. Ligands were transferred to the cell plate from the sample plate using the Novostar's integrated pipette. To obtain the specific fluorescence response, baseline fluorescence counts before addition of ligands were subtracted from the peak of the calcium response Specific responses were used to plot the concentration response curve.
Murine Wild type Gα16 was cloned as described above. […] was prepared with the Stratagene quick change mutagenesis kit according to the manufacturers instructions. The correctness of all PCR-derived sequences was verified by sequencing in both directions.
COS7 cells were grown and transfected as described above.
24 h after transfection, COS7 cells were split into 96 well plates at a density of […] cells per well. 18-24 h later cells were loaded with a calcium sensitive dye (calcium assay kit from Molecular devices) for 1 h (37 C, 5% CO2) and then for 1 h at room temperature. […] To obtain the specific fluorescence response, baseline fluorescence counts before addition of ligands were subtracted from the peak of the calcium response. […]

phospholipase Cβ [2] = assay: PI-hydrolysis assay in COS7 cells cotransfected with receptor and mutant/chimeric Gαq subunits (Example 3)
From the text: Murine wild type Gαq was cloned from mouse brain by RT-PCR and inserted into the BamHI-NslI-sites of pcDNA1.1. All wild type and mutant Gα subunits contained an internal hemagglutinin epitope tag DVPDYA (Wedegaertner et al., 1993) replacing Gαqwt residues 125-130. To create the C-terminally modified Gαqi5 subunit, in which the last five aa of wt Gαq were replaced with the corresponding Gαi sequence, a 175-bp BglII-NslI fragment was replaced, in a two piece ligation, with a synthetic DNA fragment, containing the desired codon changes. Gαqs5/z5 were prepared in an analogous fashion. GαqG66x mutants were prepared with the Stratagene quick change mutagenesis kit according to the manufacturer's instructions. To generate GαqG66Xi5/s5/z5(X=D,V,N,K), a 175 bp BglII-NsiI fragment was removed from GαqG66X and replaced with the corresponding BglII-NsiI fragment of Gαqi5 and Gαqs5/z5, respectively. The correctness of all PCR-derived sequences was verified by sequencing in both directions. […]
(§1) 18-24 h after transfections cells were splitted into 35-mm dishes in culture medium supplemented with 3 μCi/ml [3H]myo-inositol (20 Ci/mmol; Amersham). […] Cells were then stimulated in the same buffer with the appropriate agonist ligands for 1 h (37° C.), and increases in intracellular inositolphosphate determined by anion exchange chromatography as described (Kostenis et al., 1997).

phospholipase Cβ [3] = assay: Basal IP formation in COS7 cells transfected with Gα subunit alone (constitutive activity); settings: no receptor, no ligand, FIG. 6
Experimental: Basal IP3 formation was determined in COS7 cells transiently transfected with vector DNA, Gαqwt, GαqG66D and the constitutively active Gα15Q212L mutant as described in detail in the Examples. Data represent mean values±SEM of 4 independent experiments performed in duplicate.
COS7 cells were grown in Dulbecco's modified Eagles medium supplemented with 10% (vol/vol) fetal calf serum, Penicillin-Streptomycin (10000 IU/ml-10000 μg/ml) and 2 mM L-Glutamin in a humidified 5% CO2 incubator. For transfections, 1×10^6 cells were seeded into 100-mm dishes. About 24 h later, cells were cotransfected with the indicated G protein and receptor constructs (1:1 ratio) by using the Fugene transfection reagent as per manufacturer's instructions.
as §1, with “split” for “splitted”, “35 mm” for “35-mm”, “Ci/mmol:” for “Ci/mmol;”, “45 min” for “1 h”, “1997)” for “1997).”
To test whether the mutant Gαq subunit differs from Gαq wt in its ability to signal to phospholipase Cβ, plasmids encoding the respective cDNAs were transiently transfected into COS7 cells and IP1 accumulation was measured.

B1: Gα16: Murine wild type Gα16 (protein, UniProt P30678 1-374, looked up)
Guanine nucleotide-binding …: MARSLTWGCCPWCLTEEEKTAARIDQEINRILLEQKKQEREELKLLLLGPGESGKSTFIKQMRIIHGVGYSEEDRRAFRLLIYQNIFVSMQAMIDAMDRLQIPFSRPDSKQHASLVMTQDPYKVSTFEKPYAVAMQYLWRDAGIRACYERRREFHLLDSAVYYLSHLERISEDSYIPTAQDVLRSRMPTTGINEYCFSVKKTKLRIVDVGGQRSERRKWIHCFENVIALIYLASLSEYDQCLEENDQENRMEESLALFSTILELPWFKSTSVILFLNKTDILEDKIHTSHLATYFPSFQGPRRDAEAAKSFILDMYARVYASCAEPQDGGRKGSRARRFFAHFTCATDTQSVRSVFKDVRDSVLARYLDEINLL
agonist-induced intracellular calcium mobilization [1]: gain the ability to stimulate calcium mobilization

B2: Gα16G69D: Gα16 with glycine 69 to aspartate mutation in linker I; SEQ ID No 5 (protein, listed as Homo sapiens)
chain: MARSLTWRCCPWCLTEDEKAAARVDQEINRILLEQKKQDRGELKLLLLGPGESGKSTFIKQMRIIHGAXYSEEERKGFRPLVYQNIFVSMRAMIEAMERLQIPFSRPESKHHASLVMSQDPYKVTTFEKRYAAAMQWLWRDAGIRACYERRREFHLLDSAVYYLSHLERITEEGYVPTAQDVLRSRMPTTGINEYCFSVQKTNLRIVDVGGQKSERKKWIHCFENVIALIYLASLSEYDQCLEENNQENRMKESLALFGTILELPWFKSTSVILFLNKTDILEEKIPTSHLATYFPSFQGPKQDAEAAKRFILDMYTRMYTGCVDGPEGSKKGARSRRLFSHYTCATDTQNIRKVFKDVRDSVLARYLDEINLL
modifications: (69)..(69) Xaa is selected from the group consisting of Asp, Val, Asn and Lys
agonist-induced intracellular calcium mobilization [1]: significantly increased

B3: GαqG66Di5: Gαq combining G66D linker I mutation with C-terminal five amino acids of Gαi; SEQ ID No. 6 (protein, listed as Mus musculus)
chain: MTLESIMACCLSEEAKEARRINDEIERHVRRDKRDARRELKLLLLGTGESGKSTFIKQMRIIHGSXYSDEDKRGFTKLVYQNIFTAMQAMIRAMDTLKIPYKYEHNKAHAQLVREVDVEKVSAFENPYVDAIKSLWNDPGIQECYDRRREYQLSDSTKYYLNDLDRVADPSYLPTQQDVLRVRVPTTGIIEYPFDLQSVIFRMVDVGGQRSERRKWIHCFENVTSIMFLVALSEYDQVLVESDNENRMEESKALFRTIITYPWFQNSSVILFLNKKDLLEEKIMYSHLVDYFPEYDGPQRDAQAAREFILKMFVDLNPDSDKIIYSHFTCATDTENIRFVFAAVKDTILQLNLKDCGLF
modifications: (66)..(66) Xaa is selected from the group consisting of Asp, Val, Asn and Lys
agonist-induced IP3 / PLCβ activity (phospholipase Cβ [2]; Gi/o coupled receptors CXCR2, CCR5, SSTR1, KOR, GPR7, HM74a, NPY4, M2, P2Y12, FIG. 11): robust IP3 increases exceeding those observed upon coexpression with the C-terminal or the G66D mutant alone

B4: GαqG66Ds5: Gαq combining G66D linker I mutation with C-terminal five amino acids of Gαs; SEQ ID No. 7 (protein, listed as Mus musculus)
chain: B3 chain with D355Q, C356Y, G357E, F359L
modifications: (66)..(66) Xaa is selected from the group consisting of Asp, Val, Asn and Lys
response (stimulation of PLCβ) versus individual mutants (phospholipase Cβ [2]; coexpressed non-Gq-selective receptor, Gs-linked GLP1, GIP, DP, adrenergic β2 (FIG. 12)): robust response exceeding the response observed upon coexpression with the C-terminal or the GαwG66D mutant alone

B5: Gα15Q212L: GTPase defective, constitutively active Gα15 mutant replacing Glutamine 212 by Leucine (protein, UniProt P30678 1-374, looked up, variant Q212L)
Guanine nucleotide-binding …: B1 Guanine nucleotide-binding … with Q212L
basal IP1 accumulation / ability to activate PLCβ (constitutive activity) (phospholipase Cβ [3]): robust IP1 increase
